Data on 5 molecules can be found in patent US10272233B2, “Method to fabricate polymeric microneedles” (National University of Singapore, priority 2012, dated 2019).

For data set [1] the following is noted: cited from earlier work.
Data set [2] can be described thus: In vitro release of rhodamine B from microneedle arrays in 1×PBS at 37° C. The format is physicochemical. Conditions: within the first hour, rhodamine B encapsulated in PEGDA microneedles and backing layer. How it is done: Encapsulation of a Model Drug: Imaging and In Vitro Release Rhodamine B was dissolved in the prepolymer solution at a concentration of 0.09, 0.17 and 0.44 weight %, respectively. The drug-laden microneedle samples were imaged using a fluorescence stereomicroscope (Nikon, Japan). The amount of drug encapsulated in the microneedles was calculated from the percent weight of the drugs in the prepolymer solution and the weight of fabricated microneedles. Selective incorporation of rhodamine B in the backing layer or microneedle shafts was made possible by using the prepolymer solutions containing the model drug to fabricate the backing layer or microneedles respectively. In vitro release of rhodamine B was tested by suspending fabricated microneedle arrays in 15 ml of 1×PBS, at 37° C. and sampled at regular intervals. At each sampling point, the whole 15 ml of release medium was withdrawn and replaced with 15 ml of fresh 1×PBS. The samples were stored at 4° C. before analysis. The amount released was quantified by measuring rhodamine B fluorescence at excitation and emission wavelengths of 554 nm and 586 nm, respectively, with a Tecan 2000 microplate reader (Tecan, Austria). In Vitro Permeation Through Rat Skin

The nature of data set [3]: Collagen permeation through microneedle pretreated rat skin (confocal fluorescence). The format is in vitro ADME. How it is done: Microneedles of the longest range of length were inserted into excised rat abdominal skin. Hair and fat were removed as mentioned previously. The skin was fully stretched on a thin layer of PDMS to mimic tissue-like mechanical support. A force of 10 N was applied using the digital force gauge (Dillon GL, USA) for 2 minutes. Bovine skin collagen type 1, FITC conjugate (MW=300 kDa) of concentrations 0.025, 0.050 and 0.075% w/v was obtained by diluting the stock collagen solution (0.1% w/v) withappropriate amount of 0.1 M Tris-HCl buffer (pH 7.8) containing 0.4 M NaCl, 10 mM CaCl2 and 0.25 M glucose. NaCl and CaCl2 aid in stabilizing the collagen molecules and glucose is added to prevent gelation of the collagen fibers. Each collagen concentration was applied to separate skin samples at the area of insertion. The time of contact between the collagen solution and the skin was kept constant at 4 hours at room temperature, after which excess collagen on the skin surface was removed using Kimwipe (Kimberly-Clark, Roswell, Ga.). The degree of permeation of collagen through the skin was quantified by using the A-1R confocal microscope (Nikon, Japan) to observe the fluorescence intensity of collagen type 1, FITC conjugate at excitation and emission wavelengths of 490 nm and 520 nm respectively. […]

The nature of data set [4]: Fluorescence spectroscopy, tertiary structure stability of BSA in microneedles. Conditions: excitation 280 nm. The format is physicochemical. How it is done: In order to evaluate the tertiary structural changes in the protein conformation, fluorescence spectra was analyzed for protein samples. […] The emission spectra were studied in the range of 300-400 nm at a fixed excitation wavelength of 280 nm using a Hitachi F-7000 fluorescence spectrophotometer. The fluorescence intensities were plotted against wavelength as an average of triplicate measurements.

Data set [5] can be described thus: Circular dichroism, secondary structure stability of BSA in microneedles. Particulars: far UV CD 260-200 nm; microneedle release samples stored 3 days at 37° C.; degraded control: 75° C. or pH 2. The format is physicochemical. How it is done: Circular dichroism (CD) spectroscopy was performed on the samples to evaluate the secondary structural characteristics of bovine serum albumin in the fabricated microneedles. The analysis was performed in a Jasco J-810 spectropolarimeter (Jasco, Tokyo, Japan) with a 1 mm light path quartz cell (Helima, Müllheim, Germany). Data was acquired at a bandwidth of 0.1 nm with a scan speed of 50 nm/min and a response time of 8 seconds. […] The microneedle release samples were first filtered using micro-centrifugal concentrators, (30 kDa cut-off) (Vivaspin 20, GE, UK) to separate the protein from polymer. Average value from triplicate measurements was used to plot the curve of molar ellipticity to wavelength. Molar ellipticity was calculated using the following equation: […]
The percentage of α-helix was calculated from the following equation
[formula] Tertiary Structure Stability

Turning to `O=C(O)CN(CC(=O)O)Cc1cc2c(cc1O)Oc1cc(O)c(CN(CC(=O)O)CC(=O)O)cc1C21OC(=O)c2ccccc21` [calcein], the “log P” value in data set [1] is −5.02.
As for `CCN(CC)c1ccc2c(-c3ccccc3C(=O)O)c3ccc(=[N+](CC)CC)cc-3oc2c1.[Cl-]` [rhodamine B, Rhodamine B], in data set [1], the “log P” value is listed as 2.43. Also, the encapsulated drug released in data set [2] was ~30%.
For “bovine collagen type 1, FITC conjugate: model macromolecule, MW=300 kDa, applied to microneedle pretreated skin”, the “diffusion of collagen molecules after treatment of skin with microneedles” value in data set [3] is on record as “greatly enhanced”.
With “degraded BSA: BSA degraded by heating at 75° C. and under acidic conditions of pH 2”, the fluorescence entry in data set [4] (BSA denatured using heat or acid, emission 300-400 nm) is “did not show any fluorescence”. The “secondary structure / ellipticity by circular dichroism” value in data set [5] is reported as “significantly lower ellipticity values”.
“standard solution of BSA: standard BSA solution 0.026 mg/ml in purified water”: the emission maximum in data set [4] (standard BSA solution, scanned 300-400 nm) came to 338 nm.
